# Test results: article PMC5499572 (Nucleic Acids Research, 2017)
# T1: Rsa1p_(230-381) (S. cerevisiae, UniProt Q08932 230-381)
# T1 sequence: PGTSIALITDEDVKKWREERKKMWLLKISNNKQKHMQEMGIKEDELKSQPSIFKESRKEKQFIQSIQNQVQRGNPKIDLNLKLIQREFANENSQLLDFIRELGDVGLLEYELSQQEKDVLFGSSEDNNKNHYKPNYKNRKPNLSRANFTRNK
# T2: His6TRX-Rrp9p (S. cerevisiae, UniProt Q06506 1-573)
# T2 sequence: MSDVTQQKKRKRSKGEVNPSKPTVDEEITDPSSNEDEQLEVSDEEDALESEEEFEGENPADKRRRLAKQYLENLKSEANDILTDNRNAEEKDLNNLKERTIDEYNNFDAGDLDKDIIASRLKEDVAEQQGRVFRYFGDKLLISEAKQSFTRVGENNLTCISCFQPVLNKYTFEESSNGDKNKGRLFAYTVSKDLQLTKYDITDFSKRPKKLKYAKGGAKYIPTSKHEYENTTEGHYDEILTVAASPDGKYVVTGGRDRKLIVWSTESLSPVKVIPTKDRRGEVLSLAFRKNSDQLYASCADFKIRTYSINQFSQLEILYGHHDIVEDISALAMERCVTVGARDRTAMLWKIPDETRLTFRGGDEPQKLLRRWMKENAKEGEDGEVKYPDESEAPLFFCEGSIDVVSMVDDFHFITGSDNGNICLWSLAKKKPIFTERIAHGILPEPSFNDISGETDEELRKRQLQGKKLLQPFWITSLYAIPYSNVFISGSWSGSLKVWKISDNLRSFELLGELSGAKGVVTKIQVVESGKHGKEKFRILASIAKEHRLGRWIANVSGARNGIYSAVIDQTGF
# Key:
# Rsa1p_(230-381) = target: T1, Rsa1p_(230-381); test: native gel or EMSA
# His6TRX-Rrp9p = target: T2, His6TRX-Rrp9p; test: native gel or EMSA
Binder,binding result (Rsa1p_(230-381)),binding result (His6TRX-Rrp9p)
"Snu13p (recombinant, wild type) (natural protein) MSAPNPKAFPLADAALTQQILDVVQQAANLRQLKKGANEATKTLNRGISEFIIMAADCEPIEILLHLPLLCEDKNVPYVFVPSRVALGRACGVSRPVIAASITTNDASAIKTQIYAVKDKIETLLI",binds,binds
Snu13p variant E72/A (recombinant) (natural protein) MSAPNPKAFPLADAALTQQILDVVQQAANLRQLKKGANEATKTLNRGISEFIIMAADCEPIEILLHLPLLCADKNVPYVFVPSRVALGRACGVSRPVIAASITTNDASAIKTQIYAVKDKIETLLI,,binds
